Results on 18 molecules are retold here after patent US20240101674A1 (OTTIMO PHARMA, published 2024).

Numbering of substitutions follows the chain as printed. Names may count otherwise. Bounds are passed on as bounds.

To fix the notation:
B1: MAB06 IgG1 null (antibody, V domains shown)
VH: EVQLVESGGGLVQPGGSLRLSCAASGFTFSSYMMSWVRQAPGKGLEWVATISGGGANTYYPDSVKGRFTISRDNAKNSLYLQMNSLRAEDTAVYYCARQLYYFDYWGQGTTVTVSS
VL: DIQMTQSPSSLSASVGDRVTITCLASQESGIWLSWYQQKPGKAPKLLIYTATSLADGVPSRFSGSGSGTDFTLTISSLQPEDFATYYCQQVSVTPFTFGGGTKVEIK
notes: Human IgG1 null format (L234A, L235A, G237A) with human C kappa; only variable domains are tied to the clone
B2: hMAb005 IgG1 null (antibody, V domains shown)
VH: B1 VH
VL: B1 VL with E28T, S29I, I31T, S34T, S92Y, V93S, T94I, F96W
notes: Tested as human IgG1 null (L234A, L235A, G237A) with human C kappa; also called humanized MAb005
B3: MAB04 IgG1 null (antibody, V domains shown)
VH: B1 VH
VL: B1 VL with E28G, S29I, I31P
notes: as for B1
B4: MAB02 IgG1 null (antibody, V domains shown)
VH: B1 VH
VL: B1 VL with E28P, S29L, S92A, V93E, T94L, T97G
notes: as for B1
B5: MAB05 IgG1 null (antibody, V domains shown)
VH: B1 VH
VL: B1 VL with E28P, S29L
notes: as for B1
B6: MAB01 IgG1 null (antibody, V domains shown)
VH: B1 VH
VL: B1 VL with E28G, S29I, I31P, S92A, V93E, T94L, T97G
notes: as for B1
B7: MAB05E08 IgG1 null (antibody, V domains shown)
VH: B1 VH
VL: B1 VL with E28T, S29I, I31T, S34T
notes: as for B1
B8: MAB02A03 IgG1 null (antibody, V domains shown)
VH: B1 VH
VL: B1 VL with P8S, E28G, S29I, I31P, S92Y, V93S, T94I, F96W
notes: as for B1
B9: MAB02D08 IgG1 null (antibody, V domains shown)
VH: B1 VH
VL: B1 VL with S92Y, V93S, T94I, F96W
notes: as for B1
B10: MAB02B03 IgG1 null (antibody, V domains shown)
VH: B1 VH
VL: B1 VL with E28P, S29L, S92Y, V93S, T94I, F96W
notes: as for B1
B11: MAB05G03 IgG1 null (antibody, V domains shown)
VH: B1 VH
VL: B1 VL with E28T, S29I, I31T, S34T, S92A, V93E, T94L, T97G
notes: as for B1
B12: MAB02D08 Fab (Fab, V domains shown)
VH: B1 VH
VL: B1 VL with S92Y, V93S, T94I, F96W
notes: Library-derived clone screened as human IgG1-kappa Fab in E. coli periplasmic extract; also called MAB02D08 (periprep Fab)
B13: MAB02B03 Fab (Fab, V domains shown)
VH: B1 VH
VL: B1 VL with E28P, S29L, S92Y, V93S, T94I, F96W
notes: Library-derived clone screened as human IgG1-kappa Fab in E. coli periplasmic extract; also called MAB02B03 (periprep Fab)
B14: MAB05E08 Fab (Fab, V domains shown)
VH: B1 VH
VL: B1 VL with E28T, S29I, I31T, S34T
notes: Library-derived clone screened as human IgG1-kappa Fab in E. coli periplasmic extract; also called MAB05E08 (periprep Fab)
B15: MAB02A03 Fab (Fab, V domains shown)
VH: B1 VH
VL: B1 VL with P8S, E28G, S29I, I31P, S92Y, V93S, T94I, F96W
notes: Library-derived clone screened as human IgG1-kappa Fab in E. coli periplasmic extract; also called MAB02A03 (periprep Fab)
B16: MAB05G03 Fab (Fab, V domains shown)
VH: B1 VH
VL: B1 VL with E28T, S29I, I31T, S34T, S92A, V93E, T94L, T97G
notes: Library-derived clone screened as human IgG1-kappa Fab in E. coli periplasmic extract; also called MAB05G03 (periprep Fab)
B17: MAB06.8.6 IgG1 null (antibody, V domains shown)
VH: B1 VH with M33L, A56S, T58K, P61V, F103Y
VL: B1 VL with L24R, T50A, T52S, A55Q, D56S
notes: Human IgG1 null format; only variable domains are tied to the clone
B18: MAB06.8.2 IgG1 null (antibody, V domains shown)
VH: B1 VH with M33L, A56S, T58K, P61V, L100V
VL: B1 VL with L24R, T50A, T52S, A55Q, D56S
notes: as for B17

For one experiment, the target named is T1, human PD1 human Fc tagged recombinant protein (human, UniProt Q15116 25-170).
T1 construct: also called human PD1-Fc; hu PD1; not shown: human Fc tag
T1 sequence (Q15116 25-170 limits assumed): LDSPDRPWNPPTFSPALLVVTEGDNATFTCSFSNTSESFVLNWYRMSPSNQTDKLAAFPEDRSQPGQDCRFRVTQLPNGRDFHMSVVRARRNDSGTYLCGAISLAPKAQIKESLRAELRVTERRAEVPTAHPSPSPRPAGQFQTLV
Put plainly: direct titration ELISA, IgG1 null on coated PD1-Fc (FIG. 3A). How it is done:
(§1) Binding and cross-reactivity of the lead panel to the recombinant proteins was initially assessed by binding ELISA. The human PD1 human Fc tagged recombinant protein and the cynomolgus monkey PD1 human Fc tagged recombinant protein were coated to the surface of MaxiSorp™ flat-bottom 96 well plate at 1 μg/ml. The purified Fab or IgG samples were titrated in two fold serial dilutions starting from 500 nM to 0.98 nM and allowed to bind to the coated antigens. The Fabs were detected using mouse anti-c-myc antibody followed by donkey anti-mouse IgG conjugated to horseradish peroxidase. The IgGs were detected using the mouse anti-human IgG conjugated to horseradish peroxidase. Binding signals were visualized with 3,3′,5,5′-Tetramethylbenzidine Substrate Solution (TMB) and the absorbance measured at 450 nm.
In the case of B1, the binding result is “binds”.

With B2, the binding result was “binds”.

Turning to B3, the binding result is listed as “binds”.

Take B4: the binding result is given as “binds”.

B5: the binding result is “binds”.

With B6, the binding result was “binds”.

For another experiment, the target named is T2, cynomolgus monkey PD1 human Fc tagged recombinant protein (cynomolgus monkey, UniProt Q15116 25-170 (human entry), limits assumed).
T2 construct: also called cyno PD1-Fc; cyno PD1; not shown: human Fc tag
T2 chain: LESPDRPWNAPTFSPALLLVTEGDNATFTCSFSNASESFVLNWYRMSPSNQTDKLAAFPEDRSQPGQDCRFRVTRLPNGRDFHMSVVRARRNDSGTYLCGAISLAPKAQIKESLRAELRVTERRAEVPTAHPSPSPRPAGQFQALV
The description is as above. How it is done:
as §1
For the molecule B1, the binding result is recorded as “binds”.

With B2, the binding result is listed as “binds”.

Regarding B3, the binding result is reported as “binds”.

B7: the binding result is “binds”.

Regarding B8, the binding result was “binds”.

Turning to B4, the binding result is on record as “binds”.

On to B9, for which the binding result was “binds”.

B5: the binding result was “binds”.

For the molecule B10, the binding result is given as “binds”.

As for B11, the binding result is “binds”.

In the case of B6, the binding result is recorded as “binds”.

In another experiment the target is T3, rhesus VEGFR2 protein (rhesus monkey).
T3 construct: Recombinant protein used in ELISA; also called rhesus monkey VEGFR2; rh VEGFR2
T3 chain: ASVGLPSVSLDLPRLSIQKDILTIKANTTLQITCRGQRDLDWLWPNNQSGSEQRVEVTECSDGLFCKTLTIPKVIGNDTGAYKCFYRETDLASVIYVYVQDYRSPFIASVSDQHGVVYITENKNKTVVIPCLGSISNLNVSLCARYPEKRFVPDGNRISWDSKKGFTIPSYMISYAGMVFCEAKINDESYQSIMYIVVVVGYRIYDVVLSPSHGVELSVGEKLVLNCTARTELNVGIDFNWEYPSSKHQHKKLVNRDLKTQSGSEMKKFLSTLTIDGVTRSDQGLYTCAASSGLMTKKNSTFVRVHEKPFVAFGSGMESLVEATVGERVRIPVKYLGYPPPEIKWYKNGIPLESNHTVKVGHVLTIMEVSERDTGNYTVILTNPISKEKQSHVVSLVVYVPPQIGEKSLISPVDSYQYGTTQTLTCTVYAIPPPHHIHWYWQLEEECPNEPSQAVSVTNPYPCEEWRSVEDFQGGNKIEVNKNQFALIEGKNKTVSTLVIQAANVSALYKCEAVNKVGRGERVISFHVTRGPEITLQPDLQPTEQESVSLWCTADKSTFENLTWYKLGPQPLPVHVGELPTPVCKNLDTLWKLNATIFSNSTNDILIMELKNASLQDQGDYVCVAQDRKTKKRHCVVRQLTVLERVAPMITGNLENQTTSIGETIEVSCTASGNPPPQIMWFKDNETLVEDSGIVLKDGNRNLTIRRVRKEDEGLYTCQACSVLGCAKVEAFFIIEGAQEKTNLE
As to the kind of experiment: periprep Fab direct binding ELISA (FIG. 1).
In the case of B12, the binding result was “binds”.

As to B13, the binding result is recorded as “binds”.

As to B14, the binding result is recorded as “binds”.

Regarding B15, the binding result was “binds”.

As to B16, the binding result is recorded as “binds”.

The target of another experiment is T2, cynomolgus monkey PD1 human Fc tagged …. Put plainly: periprep Fab direct binding ELISA (FIG. 1).
Turning to B12, the binding result was “binds”.

On to B13, for which the binding result is recorded as “binds”.

As to B14, the binding result was “binds”.

As to B15, the binding result is “binds”.

For the molecule B16, the binding result is “binds”.

For a further experiment, the target named is T4, human VEGFR2 protein (human, UniProt P35968 20-764).
T4 construct: Recombinant protein used in ELISA; also called hu VEGFR2; KDR
Put plainly: periprep Fab direct binding ELISA (FIG. 1).
Regarding B12, the binding result is recorded as “binds”.

In the case of B13, the binding result is “binds”.

For B14, the binding result is listed as “binds”.

Turning to B15, the binding result was “binds”.

In the case of B16, the binding result is “binds”.

The target of the next experiment is T4, human VEGFR2 protein. As to the kind of experiment: direct titration ELISA, IgG1 null on VEGFR2 protein (FIG. 12C).
B17: the binding result is reported as “binds”.

With B18, the binding result is on record as “binds”.

The target of a further experiment is T3, rhesus VEGFR2 protein. As to the kind of experiment: direct titration ELISA, IgG1 null on VEGFR2 protein (FIG. 3B).
As to B1, the binding result is “binds”.

Regarding B3, the binding result is on record as “binds”.

On to B7, for which the binding result is recorded as “binds”.

For the molecule B8, the binding result is given as “binds”.

Take B9: the binding result is given as “binds”.

For the molecule B5, the binding result is “binds”.

In the case of B10, the binding result was “binds”.

B11: the binding result is given as “binds”.

As to B6, the binding result is “binds”.

A further experiment deals with T4, human VEGFR2 protein. The description is as above.
Turning to B1, the binding result is recorded as “binds”.

As to B3, the binding result is “binds”.

In the case of B7, the binding result is “binds”.

Consider B8, for which the binding result is on record as “binds”.

As to B9, the binding result is “binds”.

For B5, the binding result was “binds”.

On to B10, for which the binding result was “binds”.

Regarding B11, the binding result is on record as “binds”.

As for B6, the binding result is reported as “binds”.

In another experiment the target is T5, biotinylated human PD1-His/AviTag (human, UniProt Q15116 25-170, limits assumed, biotinylated).
T5 construct: also called human PD1 protein (Alphascreen); not shown: His/AviTag
T5 sequence (Q15116 25-170 limits assumed): as the sequence (Q15116 25-170 limits assumed) above
As to the kind of experiment: Alphascreen epitope competition, Fab periprep; competitor hMAb005 IgG1 null on biotinylated human PD1-His/AviTag. How it is done: FIG. 2A-FIG. 2B. Epitope competition analysis of Fab proteins in Alphascreen Anti-PD1 clones were expressed as Fab in E. coli and peripreps were applied in an epitope competition assay using Alphascreen technology.
The AlphaScreen assay (Perkin Elmer) was performed in a 25 μl final volume in 384-well white microtiter plates (Greiner). The reaction buffer contained 1×PBS pH 7.3 (Oxoid, Cat. nr. BR0014G) and 0.05% (v/v) Tween® 20 (Sigma, Cat. nr. P9416). Periprep samples diluted in reaction buffer were incubated with biotinylated human PD1-His/AviTag at 0.6 nM final concentration for 20 minutes at room temperature. […] The emission of light was measured in the EnVision multilabel plate reader (Perkin Elmer) and analysed using the EnVision manager software. Values were reported as Counts Per Second (CPS) and corrected for crosstalk. Signal reduction percentages were calculated relative to the irrelevant sample.
As to B12, the “percentage signal reduction of hMAb005/PD1 interaction” value (“percentage signal reduction” below) is over 75%.

As for B13, the “percentage signal reduction” value was over 75%.

Take B14: the “percentage signal reduction” value was over 75%.

As for B15, the “percentage signal reduction” value came out at 75%.

Consider B16, for which the “percentage signal reduction” value is over 75%.
